Test results as given in the supplement of paper PMC12042874.
± gives the uncertainty stated by the source.

Test: amyloid nucleation score (Sup35N fusion, yeast selection) (log enrichment); library NNK2; higher = more nucleation; inactive = no reads after selection
Outline: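 Sup35N fusions to peptides of 20 random codons were expressed in psi-negative yeast, induced 24 hours with 100 μM copper sulfate, and grown 7 days at 30°C on medium lacking adenine and uracil. Input and output plasmid inserts were sequenced by Illumina. The nucleation score is the DiMSum log enrichment of output over input reads, centred on the mode score of non-aggregating sequences. Sequences with under 100 input reads were excluded.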

| Substance | amyloid nucleation score |
| --- | --- |
| FMNANRRVKKGQRVKRWTYS | 0.045 ± 0.79 |
| FMNNMSWLKNFILTWIYKRR | inactive |
| FMQPYTCRSDFDRK | 0.052 ± 0.48 |
| FMRMGTFYSDAVCMLYVSKR | 1.28 ± 0.23 |
| FMVACHCCHTSCEYNFGNTV | 3.96 ± 0.13 |
| FNCTRKNLCFFGIVYSSIIT | -0.86 ± 0.63 |
| FNGLVVFSEHMIRITACDEG | -0.479 ± 1 |
| FNGSGARGSGRMYAILYKMS | 0.422 ± 0.56 |
| FNLMSMIRNRH | -0.548 ± 0.79 |
| FNLTFNHF | 6.041 ± 0.045 |
| FNLTICSLDVPTFL | -0.549 ± 1 |
| FNRFLKYMPSSWLWQGCSVQ | -0.451 ± 0.36 |
| FNRKTKWAYFWLVHGRNR | 5.213 ± 0.052 |
| FNTILVRLPA | 0.455 ± 0.55 |
| FNTYVVNFSRRGDIVMAKR | 6.59 ± 0.085 |
| FNVKWMRW | 5.36 ± 0.066 |
| FNYSPLRFCTNDC | 1.63 ± 0.31 |
| FNYWPYVLNWWELLYQDDAT | 1.11 ± 0.23 |
| FPGWGIDPTYKVKVRWMNRA | 0.566 ± 0.33 |
| FPQWFHFGCNLARSL | -0.613 ± 0.46 |
| FPWYCVGYVRSKRDRKVAWS | 0.04 ± 0.34 |
| FQCLVFLLIGRFGVRHWT | -0.675 ± 1.1 |
| FQDDDDPFFCVFAYFIGFFA | -0.983 ± 1.1 |
| FQDWCHREYYLRLREVSLGG | inactive |
| FQPFVDLLDVVHRELGSLTR | 4.76 ± 0.067 |

| Substance | amyloid nucleation score |
| --- | --- |
| FQSDLMINIK | -0.496 ± 0.56 |
| FREVSSLRCIIFLHITCRNS | 0.647 ± 0.57 |
| FRFRSNSMSFHNADISLLSV | inactive |
| FRIHIWYGY | 0.244 ± 0.17 |
| FRRLNTATRRCVTSG | -1.13 ± 0.55 |
| FRSGGPLFFHSMGTGFVFVH | -1.5 ± 1.1 |
| FRSHCWL | 0.285 ± 0.41 |
| FRTQAF | 1.16 ± 0.47 |
| FRVFCMHSED | 2.47 ± 0.12 |
| FRVKRL | -1.19 ± 1.1 |
| FRVWSFFLNF | 3.12 ± 0.1 |
| FSAEIRGTQRMLQRLSLYKR | 1.61 ± 0.092 |
| FSCFIIYVGQKTACNSNTAL | 4.57 ± 0.08 |
| FSCWGFMVFRMVGDMLSMKD | -1.58 ± 0.49 |
| FSDFGMSLRISAKVEWIAMG | -1.59 ± 0.78 |
| FSEFIYLCTSLMDARQGMVP | -0.804 ± 1.1 |
| FSEYWVLSELVMVNKGVIWM | -0.865 ± 0.36 |
| FSFSCEGANFDVYTGMWQGS | -0.073 ± 0.45 |
| FSFYECLRGFFSNVDARCQV | 1.51 ± 0.11 |
| FSGFNR | inactive |
| FSGLSCY | inactive |
| FSGLTDHFRSYLMYSAWTNI | -0.238 ± 0.48 |
| FSHNTEFRVGCGYEFAVGKA | -0.262 ± 0.79 |
| FSIGGVKGEGSKFQGGSQMS | -0.12 ± 1 |
| FSKLLDGLTNRSESPASSVD | 1.69 ± 0.14 |

| Substance | amyloid nucleation score |
| --- | --- |
| FSKLVSIYFWGSGWWFCQWA | -0.532 ± 0.64 |
| FSLFISKMN | -0.474 ± 1 |
| FSLLTTFSLTNGGPAFLMIR | inactive |
| FSMRCYRVVLKYVSTGW | 0.905 ± 0.35 |
| FSMYSSSVWLDW | inactive |
| FSPHHEPTSRG | 0.426 ± 0.45 |
| FSPVSPSSGKAHGIGLVLLV | 0.083 ± 0.41 |
| FSRADTVF | 2.79 ± 0.13 |
| FSRSVKRLIVDVLRNKVCI | 0.58 ± 0.54 |
| FSSEGLRIRKIRQGISISLC | -1.21 ± 1.1 |
| FSSLRILTERENFHLVSGVH | -1 ± 0.78 |
| FSVLAMAWSS | -0.226 ± 1.1 |
| FTALSIGLIIVMLRLYRRCF | -0.733 ± 0.64 |
| FTCITIGVFELAQACPIYGG | 6.15 ± 0.071 |
| FTFTRQSAGAHRYDIFVPRT | 0.17 ± 0.41 |
| FTGYRAISASLGTYCLKSCG | -0.245 ± 0.76 |
| FTILTP | -0.375 ± 0.79 |
| FTIYCSYIFCQCWDTSEKSK | 8.593 ± 0.044 |
| FTKKFYWGYPWCYMVF | -0.229 ± 0.8 |
| FTKVFRLHYFMRLTSMYVAF | -0.567 ± 1.1 |
| FTMYPITG | 0.311 ± 0.29 |
| FTPIGIIMYSFFKRTFTFVT | -1.06 ± 1.1 |
| FTRYLTFNFRLETYYRGSHG | 1.44 ± 0.18 |
| FTVDCLVVIFVYIEPMNWMG | 0.672 ± 0.62 |
| FVANSRLLALRLVIGTMLAG | 0.214 ± 0.77 |

| Substance | amyloid nucleation score |
| --- | --- |
| FVCTDCLF | -1.35 ± 0.48 |
| FVKWIMY | 4.09 ± 0.098 |
| FVLWIRYALRVTDYTVYMGA | 0.436 ± 0.39 |
| FVNFMGWTMSNINNVYFGHK | 7.303 ± 0.055 |
| FVQCLWVAWGSSGSSWQKSE | 5.541 ± 0.041 |
| FVSEINVTSGD | 0.547 ± 0.42 |
| FVSGRVQLQASGLVRGNRWV | inactive |
| FVSLTLCCYGEGDVPLREVQ | 1.9 ± 0.14 |
| FVSLVWKTLKVSRSIVSNFD | 2.74 ± 0.15 |
| FVSRSLNSQGQWFRSMTECR | -0.517 ± 0.36 |
| FVWGREMGCWCQEWYRCMRN | -0.015 ± 0.24 |
| FVWSFHCCMARWYGLGCSYM | 1.1 ± 0.15 |
| FVYESIFLHRMSYNPIRWWV | 0.112 ± 1.1 |
| FWEYEPLPPQQMSTFPD | -0.106 ± 0.79 |
| FWFIRTRAGDWCPSSSPRMF | 0.149 ± 0.23 |
| FWFKV | 0.335 ± 0.42 |
| FWQNCMALLFRFIMFKRKNV | -1.27 ± 1 |
| FWSRKCSFCFNGASVSGEVM | -0.088 ± 1.1 |
| FWVPSLSTYLSFFGKFRDWA | -0.347 ± 0.5 |
| FYAHYASHL | inactive |
| FYCSNSYYNVRIDRQNYCQM | 5.501 ± 0.052 |
| FYENN | -0.729 ± 0.78 |
| FYFGYLTFISENHVGIQEQG | inactive |
| FYFIIWNSLRPILRLSVAPV | -0.392 ± 0.61 |
| FYFKRQNNNDQVIVTHTT | -0.103 ± 0.61 |

| Substance | amyloid nucleation score |
| --- | --- |
| FYFVSSRSIDGVFFRKILNS | inactive |
| FYHISYGERKRGGLC | inactive |
| FYKGWMVLALNDNSVVSINV | 3.42 ± 0.085 |
| FYMMFMNLCFIYYCVLMEGY | inactive |
| FYRGLVDHRMNFITFNCGRQ | 5.6 ± 0.095 |
| FYRLLWSRNCTEVR | -1.43 ± 0.75 |
| FYRSGEHRRSCRVRVVYGEL | 0.397 ± 0.64 |
| FYRTSRASAGLS | -0.237 ± 0.79 |
| FYSFLINVPQCPER | 0.636 ± 0.81 |
| FYSVHSCLYVLIHRVQHACC | -0.235 ± 1.1 |
| FYWRFTFRLVCRFCYTRHLK | -0.522 ± 0.35 |
| GAFIMWYTGWVPHVDSGCCL | -1.04 ± 1.1 |
| GAIIDITRFGFLLYF | -0.847 ± 0.34 |
| GALMMMVEGSESVNKVHFVY | -1.05 ± 0.44 |
| GAMNCRVSSKTRWCDTHMVP | 1.53 ± 0.52 |
| GAVHGMT | 0.538 ± 0.55 |
| GAYNNFIMCKSFVFSFQSGD | 6.33 ± 0.063 |
| GCFSCHIWFTVRFYWTLYVP | inactive |
| GCISSVQD | inactive |
| GCLRGIGIGGCVGCLRRILF | inactive |
| GCSAQACYK | 1.03 ± 0.23 |
| GCTCYWFS | 1.63 ± 0.15 |
| GCWSPKLSIGRRSRSALYRG | 1.2 ± 0.66 |
| GDAWGTSNIDQSWKLYLSGT | -0.12 ± 0.3 |
| GDFLWNLWVYHNY | 1.05 ± 0.17 |

| Substance | amyloid nucleation score |
| --- | --- |
| GDGFLSFSERSKKYSQSS | -0.855 ± 0.55 |
| GDSPNNSYWIADSW | 2.75 ± 0.15 |
| GDTVRRLRLEHKSVDLMIQY | 3.73 ± 0.087 |
| GDVYCNGLGISFVYFRGSRS | inactive |
| GDYWGAGWRRA | 0.184 ± 0.49 |
| GECHEWV | -0.837 ± 1.1 |
| GEGVSIMYRWHL | 1.21 ± 0.1 |
| GEQYATGLP | 5.514 ± 0.039 |
| GERRTSLVVKYGRVAGYTYN | -0.273 ± 0.62 |
| GFEGMSMADRKKGEVRAIWG | 0.755 ± 0.31 |
| GFFVVISGRMKVYVQGKSWL | -0.325 ± 0.56 |
| GFGLPTGEVVTNNMALGKTE | -0.844 ± 0.49 |
| GFICPFVQLCVFRSRHRFEV | 0.676 ± 0.8 |
| GFKSFEHL | 1.91 ± 0.14 |
| GFNLKVVVITTFDAFYYHAT | inactive |
| GFQFLIGLSHLNGYLITPRY | 3.42 ± 0.059 |
| GFQWLDAYLLGSFWMRMSTC | 0.516 ± 0.81 |
| GFVERNMYAVDNDFYVQNQT | -1.2 ± 0.56 |
| GFVQDAEYRISRSCLRCILM | 4.03 ± 0.089 |
| GFVVMMFNLANRYSMQGDVG | 8.234 ± 0.052 |
| GGERYHPYYDAA | 0.268 ± 0.54 |
| GGFRWSIQEHWYCTNAYSTD | 0.734 ± 0.81 |
| GGGHMFFAGQ | -1.28 ± 1.1 |
| GGKTYNSTVVDVCDHAFCDY | -0.924 ± 1.1 |
| GGTVNYFNTLQRSMGNVESV | 3.66 ± 0.046 |

| Substance | amyloid nucleation score |
| --- | --- |
| GGWLAWVRKSYVIVFVWGGG | 0.257 ± 0.46 |
| GGWNLDYVMRVYTRRLCNAS | 1.17 ± 0.41 |
| GGWYDPGCSGGDIITDEVDW | -0.159 ± 0.55 |
| GHGFCDNVTSP | -1.2 ± 1.1 |
| GHLLASKLLQSSYETCS | 0.286 ± 0.62 |
| GHSIVLCCRSESPLKKSRYM | -0.432 ± 1 |
| GHSLYPWSALTPLL | inactive |
| GHYKISKAFTVTST | 2.58 ± 0.095 |
| GHYLYGFSKNPASENLNAFQ | -1.68 ± 0.75 |
| GIESSPFCFSLPGSATKRKQ | 0.485 ± 0.36 |
| GIFWTVNIGEICGAIEWSEG | 0.276 ± 0.29 |
| GIISRMGAVSLNLMLQKRAS | 0.8 ± 0.46 |
| GIKHVCAWDIN | inactive |
| GILYFLFVLSSVGDVCRLLV | -0.709 ± 0.63 |
| GIMSFG | 1.66 ± 0.43 |
| GINWSAVYR | -0.083 ± 0.24 |
| GIRWQVATDSPRLSGYPLCT | 3.46 ± 0.083 |
| GIVVSIMHGIDSYGAIY | -0.395 ± 0.39 |
| GKCWRVRASIFVGILFKIAG | 0.486 ± 0.8 |
| GKESTTKH | -0.494 ± 0.56 |
| GKLLRHFGLMYCLFLIAAYG | 0.108 ± 0.42 |
